Measurements taken from publication PMC2890305 (Chemical biology & drug design, 2010).
Blank lines part the entries; values can stand above or below the molecule they belong to. Where a SMILES comes first, the peptide text is derived from it. Bridges are numbered along the chain shown (N, C = ends). Where no end group is shown, it is not given here.

Tests used:
Aminopeptidase N (APN) = molecular target: T1, Aminopeptidase N (APN) (Rattus norvegicus, UniProt P15684); assay: Inhibition of APN aminopeptidase activity, increasing peptide concentrations; assay type: biochemical
T1 sequence (P15684 33-965 limits assumed): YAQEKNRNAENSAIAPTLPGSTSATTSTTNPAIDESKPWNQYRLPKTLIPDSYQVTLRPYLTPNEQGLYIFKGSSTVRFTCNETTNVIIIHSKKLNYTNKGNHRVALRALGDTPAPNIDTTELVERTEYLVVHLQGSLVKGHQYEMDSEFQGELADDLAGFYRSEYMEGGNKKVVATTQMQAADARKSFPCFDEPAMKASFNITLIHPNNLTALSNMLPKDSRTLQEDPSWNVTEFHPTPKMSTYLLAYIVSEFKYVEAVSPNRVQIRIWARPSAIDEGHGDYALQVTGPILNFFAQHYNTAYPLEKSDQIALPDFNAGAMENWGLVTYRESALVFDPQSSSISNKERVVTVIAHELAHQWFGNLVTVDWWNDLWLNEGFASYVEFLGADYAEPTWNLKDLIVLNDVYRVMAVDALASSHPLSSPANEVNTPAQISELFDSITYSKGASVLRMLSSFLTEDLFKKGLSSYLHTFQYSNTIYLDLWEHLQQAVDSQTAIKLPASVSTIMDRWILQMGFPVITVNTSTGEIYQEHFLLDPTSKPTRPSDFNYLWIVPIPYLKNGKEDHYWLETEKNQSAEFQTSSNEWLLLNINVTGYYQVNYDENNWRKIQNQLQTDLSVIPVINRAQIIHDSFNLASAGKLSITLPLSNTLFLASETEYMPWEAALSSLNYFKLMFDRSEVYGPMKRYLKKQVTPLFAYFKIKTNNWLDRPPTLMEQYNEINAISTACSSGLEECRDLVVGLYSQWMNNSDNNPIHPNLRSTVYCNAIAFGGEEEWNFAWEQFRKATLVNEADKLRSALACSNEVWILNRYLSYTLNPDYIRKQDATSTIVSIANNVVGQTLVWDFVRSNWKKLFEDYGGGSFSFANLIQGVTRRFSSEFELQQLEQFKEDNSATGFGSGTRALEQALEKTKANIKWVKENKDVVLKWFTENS

[1] = tested on: APN from Aeromonas proteolytica; conditions: ref [35]; cited from earlier work
CPNGRC = molecular target: T2, CPNGRC (disulfide 1-6 (inferred)); assay: enzyme inhibition assay
T2 chain: CPNGRC

CNGRC = molecular target: T3, CNGRC (disulfide 1-5 (inferred)); assay: enzyme inhibition assay
T3 chain: CNGRC

[2] = molecular target: the molecule itself; assay: analytical ultracentrifugation
APN = molecular target: T4, APN (Rattus norvegicus, UniProt P15684); assay: Analytical ultracentrifugation, sedimentation equilibrium; assay type: binding; conditions: 3 nM enzyme
T4 sequence (P15684 33-965 limits assumed): T1 sequence (P15684 33-965 limits assumed)

IC50 (Aminopeptidase N (APN)): 10 µM
Molecule: N=C(N)NCCC[C@@H]1NC(=O)CNC(=O)[C@H](CC(N)=O)NC(=O)[C@@H]2CCCN2C(=O)[C@@H](N)CSSC[C@@H](C(=O)O)NC1=O [CPNGRC] (H-CPNGRC-OH; disulfide 1-6)

Molecule: CC(C)C[C@H](NC(=O)[C@@H](O)[C@H](N)Cc1ccccc1)C(=O)O [bestatin]
affinity for APN from Aeromonas proteolytica [1]: slow binding nanomolar affinity

IC50 (CPNGRC): ~10 µM
IC50 (CNGRC): ~300 µM
B1: Aminopeptidase N (APN/CD13) ECD (protein)
chain: T1 sequence (P15684 33-965 limits assumed)
Kd [2]: 1.6 µM

APN in the dimeric state at assay concentration (APN): less than 0.4%
B2: APN: Aminopeptidase N isolated from rat renal brush-border membranes, treated with papain to solubilize the extracellular domains (protein, UniProt P15684 33-965, looked up)
extracellular domain: T1 sequence (P15684 33-965 limits assumed)
modifications: extracellular domain papain-solubilized
